The source of these data is patent US20170189529A1.

The target in experiment [1] is H9 HongKong/1073/99 HA monomer (influenza A virus H9 HongKong/1073/99). Nature of the experiment: kinetic binding to HA monomer (instrument not stated).
The target in experiment [2] is H5 Vietnam/1194/2004 HA monomer (influenza A virus H5 Vietnam/1194/2004). The description is as above.
Experiment [3] addresses H7 Netherlands/219/03 HA monomer (influenza A virus H7 Netherlands/219/03). Described as above.
Experiment [4] deals with recombinant HA of influenza A H3 A/Sydney/97 (influenza A virus H3 A/Sydney/97). In words: recombinant HA ELISA (AttoPhos fluorescence, mean of triplicates). For orientation: In an ELISA, binding on a coated surface is turned into a signal by an enzyme label.
Experiment [5] has as its target recombinant HA of influenza A H1 A/California/09 (influenza A virus H1 A/California/09). Described as above.
The target in experiment [6] is H5 Vietnam/1203/2004 HA trimer (influenza A virus H5 Vietnam/1203/2004). In words: kinetic binding to HA trimer (instrument not stated).
The target in experiment [7] is hemagglutinin (HA) of influenza B virus B/Malaysia (Victoria lineage) (influenza B virus B/Malaysia/04 (Victoria clade)). In words: ForteBio Octet; antigen on the sensor, varying antibody concentrations.
In experiment [8] the target is hemagglutinin (HA) of influenza B virus B/Florida (Yamagata lineage) (influenza B virus B/Florida/06 (Yamagata clade)). The description is as above.
Experiment [9] addresses H3 Perth/16/2009 HA monomer (influenza A virus H3 Perth/16/2009). In words: kinetic binding to HA monomer (instrument not stated).
The target in experiment [10] is H7 Netherlands/219/03 HA trimer (influenza A virus H7 Netherlands/219/03). In words: kinetic binding to HA trimer (instrument not stated).

B1: TRL053 (antibody, V domains shown)
VH: QVQLVQSGAEVRKPGSSVKVSCKVSGGIIRKYAINWVRQAPGQGLEWMGGIIAIFNTANYAQKFQGRVTITADESTSTVYMELSSLRSEDTALYYCARGMNYYSDYFDYWGQGSLVTVSP
VL: EIVLTQSPGTLSLSPGERATLSCRASQSVRSNNLAWYQHKPGQAPRLLIFGASSRATGIPDRFSGSGSGTDFTLTISRLEPEDFAVYYCQQYGSSPALTFGGGTKVEIKR
As to B1, the Kd was determined as 0.2 nM in experiment [1], 0.5 nM in experiment [2], 1.2 nM in experiment [3] and 0.5 nM in experiment [6]. Moreover, the koff in experiment [1] came out at 1.6e-05 s⁻¹; in [2], 1.9e-05 s⁻¹; in [3], 6.7e-05 s⁻¹; in [6] it was 4.5e-05 s⁻¹. In addition, the kon in experiment [1] worked out at 98000 M⁻¹ s⁻¹; in [2], 38000 M⁻¹ s⁻¹; in experiment [3], 55000 M⁻¹ s⁻¹; in experiment [6], 92000 M⁻¹ s⁻¹. Further, the fold reactivity over background (fold over background) in [4] worked out at 1; in [5] it was 25.6.

B2: TRL854 (antibody, V domains shown)
VH: QVQLVESGAEVKKPGASVRVSCKGSGYTFTAYHMHWVRQAPGQGFEWVGWINPNSGATYYTSTFEGRVTMTRDTSITTAYMELSSLRSDDTAVYYCATDIVVERDASLGGFNSYGMDVWGQGTTVTVSS
VL: DIEMTQSPLSLPVTPGEPASISCRSSQSLLHSNGYNHLAWYLQKPGRSPHLLIYLASTRASGVPDRFSGSGSGTDFTLKISRVEAEDVGIYYCMQSLQTSITFGQGTRLEIKR
With B2, the fold reactivity over background (fold over background) in experiment [4] worked out at 1.3; in experiment [5], 1.2.

B3: TRL784 (antibody, V domains shown)
VH: QVQLVQSGPELKKPGSSVKLSCMATGGTFINYAFSWVRQAPGQGLEWLGGIIPVYGTSNHVEKLQGRVTITADASTNTAYMELSGLRFDDTAVYFCAASTATSGTYYAMRPFDFWGQGTLVSVSS
VL: DIELTQDPSVSVAPGQTARIPCVRFNMGPTSVHWYQQKPGQAPVLVVYDDSDRPSGIPERFSGSNSGDSATLTISRVEAGDEADYYCQVWDMSSDRRVFGGGTTLTVLG
With B3, the figures for the Kd in experiment [7] and in experiment [8] were 7 nM and 0.7 nM, respectively.

B4: TRL845 (antibody, V domains shown)
VH: QVQLVQSGGDLVQPGGSLRLSCAASGFTFSRYSMNWVRQAPGMGLEWVAYISDTSRTIYYADSVKGRFTISRDNAKNSLYLQMKSLRDEDTAVYYCARDPDTPFVRAFDSWGQGTLVTVSS
VL: DIVLTQSPSFLSASVGDRVTITCRASQLISSYFAWYQQKPGKPPKLLIYAASTLQSGVPSRFSGSGSGTQFSLTISSLQPEDFATYYCQQLNSYPPITFGQGTRLEIKR
B4: the fold reactivity over background (fold over background) in experiment [4] came out at 1.1; in experiment [5], 1.4.

B5: TRL823 (antibody, V domains shown)
VH: QVQLVESGGGVVQPGGSLRLSCAASGFNFDEYVMYWVRQSPGKGLEWVSLIGADGRGTYNSDSVKGRFTISRDNRKNSLYLQMNSLRSDDTALYYCAKVERSFYDGSGYGDALEIWGQGTMVTVSS
VL: DIVMTQSPSSLSASVGDRVSITCRASQTITRFLNWYQQKPGKGPKLLIYAASTVHRGVPSRFSGSGSGTDFTLTISSLQPEDFATYYCQQSYSAPFTFGPGTTVDIRR
For B5, the Kd in [7] was 0.3 nM; in [8] it was 2 nM.

B6: TRL579 (antibody, V domains shown)
VH: QVQLVQSGAEVKKPGASVKVSCKTSGYTFTAYTIHWVRQAPGQRLEWMGWINAGNGHTKYSQRFKGRVTITRDTSARTTYMELRSLTSEDTALYFCARGPETYYYDKTNWLNSHPDEYFQHWGHGTQVTVSS
VL: DIQMTQSPSTLSASVGDRVTITCRASQTINNYLAWYQQKPGKAPKLLIYKASSLESGVPSRFSGSGSGTEFTLTISSLQPDDFATYYCQEYNNDSPLTFGGGTKVEIKR
In experiment [9], B6 gave a Kd of 3.9 nM, an off-rate constant (koff) of 0.00064 s⁻¹ and an on-rate constant (kon) of 170000 M⁻¹ s⁻¹. Besides, the fold reactivity over background (fold over background) in experiment [4] was determined as 25.6. In addition, the fold reactivity over background (fold over background) in experiment [5] was 1. In experiment [10], this molecule registered a Kd of 0.4 nM, a koff of 4e-05 s⁻¹ and a kon of 100000 M⁻¹ s⁻¹.

B7: TRL813 (antibody, V domains shown)
VH: QVQLVESGGGLVQPGGSLRLSCAASGFIFGDFAIHWVRQASGKGLEWVARIRSGLNRFETAYAASVEGRLTISRDDSKSMAYLQMNNVKAEDTAVYLCTYLVGAVGFQHWGQGTLVTVSS
VL: DIVMTQSPSTLSASVGDRVTITCRASQTIYRWLAWYQQKPGKAPKVLIYKASTLESGVPSRFSGSGSGTEFTLAISSLQPDDFATYYCQQYNSFPYRFGQGTKVEIKR
For the molecule B7, the fold reactivity over background (fold over background) in [4] worked out at 1.1; in [5], 1.6.

B8: TRL835 (antibody, V domains shown)
VH: QVQLVQSGAEVRKPGESLRISCRGSGYNFPKYWIGWVRQMPGKGLEWMGMIYPGDSDVRYNPSFQGQVTISADESINTAYLQWSSLRTSDTARYYCARHLGQQLVSNTYYYYGMDVWGQGTTVTVSS
VL: DIVLTQSPLSLPVTPGEPASISCRSSQSLLDSNGYNYLDWYLQKPGQSPQLLIYLASYRAPGVPDRFSGSGSGTDFTLKISRVEAEDVGLYYCMQALQTPPMYTFGQGTKLEIKR
In the case of B8, the results for the Kd in experiment [7] and in experiment [8] were 2.3 nM and 0.6 nM, respectively.

B9: TRL833 (antibody, V domains shown)
VH: QVQLLESGPGLVKPSQTLLLTCTVSGASISTGGNYWSWIRQHPGKDLEWIGYIFYSGTTKYNPSVDNPSLKSRVTMSVDTSENQFSLKLSSVTAADTAVYFCARGSPNSGYDWGPHFDYWGQGTLVTVSS
VL: DIELTQSPSVSVSPGQTASITCSGDKLGDKFVCWYQQKAGQSPIVVIYQDDKRPSGIPERFSGSNSGNTATLTISGTQAMDEADYFCQAWDSTTVVFGGGTKLTVLG
Take B9: the Kd in experiment [7] turned out to be 0.2 nM; in experiment [8], 2.9 nM.

B10: TRL837 (antibody, V domains shown)
VH: QVQLVQSGAEVKKPGSSVTVSCKTSGHTFISYAISWLRQAPGQGLEWMGGIVPIFGTVNYTQKFQGRLTITADESTSTAYMDLSRLTFEDTAIYFCAREAGYHSSFSGVYFDYWGQGTLLTVSS
VL: DIVMTQSPGTLSLSPGERATLYCRASQSVRSGYLAWYQHKPGQAPLLLFYDASGRATGIPDRFSGSGSGTDFTLTISRLEPEDFAVYYCLQYGSSPRTFGQGTKVEIKR
In the case of B10, the figures for the Kd in experiment [7] and in experiment [8] were 1 nM and 0.3 nM, respectively.

B11: TRL856 (antibody, V domains shown)
VH: QVQLVESGGGLVQPGGSLRLSCAASGFTFSDYWMVWVRQAPGKGLVWVSRISSDGSTTSYADSVKGPFTISRDNAKNTLYLQMNSLRAEDTAVYYCARVATPYYYESGFDYWGQGALVTVSS
VL: DIVLTQSPSVSVAPGQTARITCGGNDIGSKSVHWYQQKPGQAPVLVVFDDRDRPSGIPERFSGSNSGNTATLTISRVEAGDEADYYCQVWDITSDLVVFGGGTKLTVVG
For the molecule B11, the fold reactivity over background (fold over background) in experiment [4] is 1.3; in experiment [5] it was 1.2.

B12: TRL832 (antibody, V domains shown)
VH: QVQLVESGPGLMKPSETLSLTCTVSGGSVSNYYWSWIRQPPGKGLEWIGYVFYSGSSNYNPSLNNPSLKSRVTISIDTSNNQFSLKLSSVTAADTAVYYCARGRVNSGYDWGPNFDSWGQGALVTVSS
VL: DIVLTQAPSVSVSPGQTASITCSGDRLGEKFASWYQQKPGQSPVLVIYEDSKRPSGIPDRFSGSNSGNTATLTISGTQIMDEGDFFCQAWDSSTVVFGGGTKLTVLG
On to B12, for which the fold reactivity over background (fold over background) in [4] and in experiment [5] was 1.1 throughout.

B13: TRL847 (antibody, V domains shown)
VH: QVQLVESGGGLVQPGGSLRLSCVASGFTFSRFSMNWVRQAPGMGLEWVSYISDTGRTIYYADSVKGRFTISRDNDKNTLYLQMKSLRDEDSAFYYCARDPDTPFVRAFDSWGQGVLVTVSS
VL: DIVMTQSPSFLSASVGDRVTITCRTSQVISSYLAWYQQRPGKAPKLLIYAASTLQSGVPSRFSGSGSGTRFSLTISNLQPEDFATYFCQQLTTYPPITFGQGTRLEIKR
Regarding B13, the values for the fold reactivity over background (fold over background) in experiment [4] and in experiment [5] were 1 and 1.1, respectively.

As usually defined, the Kd is the concentration at which binding is half-saturated. A high value points to lower affinity. A word on the koff: it is a measure of how fast the partners let go of each other. Low values mean slow dissociation, high ones fast dissociation. Broadly, the kon is the rate constant with which the complex forms. A low value points to slower complex formation.
